Assay [1] concerns the target T1, human PD-L1-Fc protein (human, UniProt Q9NZQ7 19-238).
T1 construct: coating antigen of the ELISAs; also called rhPD-L1-Fc; not shown: Fc
The assay can be described thus: ELISA, antibody titrated on coated human PD-L1-Fc, OD 450nm; upper right panel. As for the experimental part: (§1) To evaluate antigen binding activity, the humanized antibodies were subjected to ELISA test. Briefly, microtiter plates were coated with human PD-L1-Fc protein at 0.5 μg/ml in PBS, 100 μl/well at 4° C. overnight, then blocked with 200 μl/well of 1% BSA. Three-fold dilutions of humanized antibodies starting from 10 μg/ml were added to each well and incubated for 1 hour at 37° C. The plates were washed with PBS/Tween and then incubated with mouse-anti-human IgG Fab antibody conjugated with Horse Radish Peroxidase (HRP) for 1 hour at 37° C. After washing, the plates were developed with TMB substrate and analyzed by spectrophotometer at OD 450 nm.

In assay [2] the target is T2, human PD-L1-his tag protein (human, UniProt Q9NZQ7 19-238).
T2 construct: also called human PD-L1-His protein; recombinant PD-L1 protein; not shown: his tag
T2 sequence (Q9NZQ7 19-238 limits assumed): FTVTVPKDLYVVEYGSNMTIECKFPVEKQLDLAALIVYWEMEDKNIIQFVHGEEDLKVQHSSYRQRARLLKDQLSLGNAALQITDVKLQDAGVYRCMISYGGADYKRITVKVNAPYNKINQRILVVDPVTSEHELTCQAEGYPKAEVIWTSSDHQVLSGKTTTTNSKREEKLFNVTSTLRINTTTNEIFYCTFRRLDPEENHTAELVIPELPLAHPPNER
Briefly: SPR (Biacore), affinity ranking, PDL1-His. A general note: Surface plasmon resonance follows binding to a sensor surface in real time, without labels.

In assay [3] the target is T1, human PD-L1-Fc protein. Briefly: ELISA, antibody titrated on coated human PD-L1-Fc, OD 450nm; upper left panel. As for the experimental part: as §1
A general note: In an ELISA, binding on a coated surface is turned into a signal by an enzyme label.

The values that follow come from US20230287125A1 (LEPU BIOPHARMA, published 2023).

T1 sequence (Q9NZQ7 19-238 limits assumed): as above

B1: Hu67F3G7-8 (antibody, V domains shown)
VH: EVQLVQSGAEVKKPGASVKVSCKASGYIFTDFWVSWVRQAPGQGLEWIGEIYPNSGVSRYNEKFKGRVTMTVDKSISTAYMELSRLRSDDTAVYYCTKYFGYTYWFGYWGQGTLVTVSS
VL: DTVLTQSPSSLSASVGDRVTITCRASKSVSTYMHWYQQKPGKAPKLLIYSASHLESGVPSRFSGSGSGTDFTLTISSLQPEDFATYYCQQSNELPVTFGGGTKVEIK
notes: humanized
Broadly, the EC50 is the concentration that produces a half-maximal response. By Kd is commonly meant the free concentration of one partner at which half of the binding sites on the other are occupied at equilibrium, for simple one-to-one binding. A high value points to lower affinity. The koff is the rate constant with which the complex falls apart. What is called kon is a measure of how fast the partners come together. High values mean faster complex formation, low ones slower complex formation. Consider B1, for which it took 12.5 ng/mL to reach a half-maximal effect in assay [1] (EC50). In assay [2], this molecule returned a Kd of 0.0356 nM, a koff of 9.84e-05 s⁻¹ and a kon of 2.76e+06 M⁻¹ s⁻¹.

B2: Hu67F3G7-1 (antibody, V domains shown)
VH: EVQLVQSGAEVKKPGASVKVSCKASGYTFTDFWVSWVRQAPGQGLEWMGEIYPNSGVSRYNEKFKGRVTMTVDKSISTAYMELSRLRSDDTAVYYCARYFGYTYWFGYWGQGTLVTVSS
VL: DIQMTQSPSSLSASVGDRVTITCRASKSVSTYMHWYQQKPGKAPKLLIYSASHLESGVPSRFSGSGSGTDFTLTISSLQPEDFATYYCQQSNELPVTFGGGTKVEIK
notes: humanized
In assay [2], B2 gave a Kd of 0.0655 nM, a koff of 0.000121 s⁻¹ and a kon of 1.86e+06 M⁻¹ s⁻¹. The EC50 in assay [3] came to 12.5 ng/mL.

B3: Hu67F3G7-4 (antibody, V domains shown)
VH: EVQLVQSGAEVKKPGASVKVSCKASGYIFTDFWVSWVRQAPGQGLEWIGEIYPNSGVSRYNEKFKGRVTMTVDKSISTAYMELSRLRSDDTAVYYCARYFGYTYWFGYWGQGTLVTVSS
VL: DIQMTQSPSSLSASVGDRVTITCRASKSVSTYMHWYQQKPGKAPKLLIYSASHLESGVPSRFSGSGSGTDFTLTISSLQPEDFATYYCQQSNELPVTFGGGTKVEIK
notes: humanized
In assay [2], B3 gave a Kd of 0.0548 nM, a koff of 0.000103 s⁻¹ and a kon of 1.88e+06 M⁻¹ s⁻¹. For the same molecule, the midpoint of the response in assay [3], the EC50, lay at 10.6 ng/mL.

B4: Hu67F3G7-9 (antibody, V domains shown)
VH: EVQLVQSGAEVKKPGASVKVSCKASGYIFTDFWVSWVRQAPGQGLEWIGEIYPNSGVSRYNEKFKGRVTMTVDKSISTAYMELSRLRSDDTAVYYCARYFGYTYWFGYWGQGTLVTVSS
VL: DTVLTQSPSSLSASVGDRVTITCRASKSVSTYMHWYQQKPGKAPKLLIYSASHLESGVPSRFSGSGSGTDFTLTISSLQPEDFATYYCQQSNELPVTFGGGTKVEIK
notes: humanized
Turning to B4, the EC50 in assay [1] came to 8.45 ng/mL. In assay [2], binding was put at a Kd of 0.0454 nM, the koff is 0.0001 s⁻¹ and the kon stood at 2.21e+06 M⁻¹ s⁻¹.

B5: Hu67F3G7-10 (antibody, V domains shown)
VH: EVQLVQSGAEVKKPGASVKVSCKASGYIFTDFWVSWVRQAPGKGLEWIGEIYPNSGVSRYNEKFKGRVTMTVDKSISTAYMELSRLRSDDTAVYYCTKYFGYTYWFGYWGQGTLVTVSS
VL: DTVLTQSPSSLSASVGDRVTITCRASKSVSTYMHWYQQKPGKAPKLLIYSASHLESGVPSRFSGSGSGTDFTLTISSLQPEDFATYYCQQSNELPVTFGGGTKVEIK
notes: humanized
As for B5, a half-maximal response in assay [1] (EC50) required 10.1 ng/mL. In assay [2], the dissociation constant Kd is 0.0392 nM, the dissociation rate constant (koff) stood at 9.34e-05 s⁻¹ and the kon worked out at 2.38e+06 M⁻¹ s⁻¹.

B6: Hu67F3G7-12 (antibody, V domains shown)
VH: EVQLVQSGAEVKKPGASVKVSCKASGYTFTDFWVSWVRQAPGQGLEWMGEIYPNSGVSRYNEKFKGRVTMTVDKSISTAYMELSRLRSDDTAVYYCTKYFGYTYWFGYWGQGTLVTVSS
VL: DTVLTQSPSSLSASVGDRVTITCRASKSVSTYMHWYQQKPGKQPKLLIYSASHLESGVPSRFSGSGSGTDFTLTISSLQPEDFATYYCQQSNELPVTFGGGTKVEIK
notes: humanized
Turning to B6, the midpoint of the response in assay [1], the EC50, lay at 9.53 ng/mL. Further, in assay [2], the Kd was determined as 0.0351 nM, the off-rate (koff) came to 9.01e-05 s⁻¹ and the kon turned out to be 2.56e+06 M⁻¹ s⁻¹.

B7: Hu67F3G7-6 (antibody, V domains shown)
VH: EVQLVQSGAEVKKPGASVKVSCKASGYTFTDFWVSWVRQAPGQGLEWMGEIYPNSGVSRYNEKFKGRVTMTVDKSISTAYMELSRLRSDDTAVYYCARYFGYTYWFGYWGQGTLVTVSS
VL: DTVLTQSPSSLSASVGDRVTITCRASKSVSTYMHWYQQKPGKAPKLLIYSASHLESGVPSRFSGSGSGTDFTLTISSLQPEDFATYYCQQSNELPVTFGGGTKVEIK
notes: humanized
Turning to B7, in assay [2], the Kd was 0.0587 nM, the koff is 0.000118 s⁻¹ and the kon stood at 2.01e+06 M⁻¹ s⁻¹. This molecule also gave an EC50 in assay [3] of 11.8 ng/mL.

B8: Hu67F3G7-11 (antibody, V domains shown)
VH: EVQLVQSGAEVKKPGASVKVSCKASGYTFTDFWVSWVRQAPGQGLEWMGEIYPNSGVSRYNEKFKGRVTMTVDKSISTAYMELSRLRSDDTAVYYCARYFGYTYWFGYWGQGTLVTVSS
VL: DTVLTQSPSSLSASVGDRVTITCRASKSVSTYMHWYQQKPGKQPKLLIYSASHLESGVPSRFSGSGSGTDFTLTISSLQPEDFATYYCQQSNELPVTFGGGTKVEIK
notes: humanized
B8: in assay [1], the EC50 came out at 8.25 ng/mL. In addition, in assay [2], the Kd stood at 0.0321 nM, the koff was 0.000164 s⁻¹ and the kon is 5.11e+06 M⁻¹ s⁻¹.

B9: Hu89C10H8-1 (antibody, V domains shown)
VH: EVQLVESGGGLVKPGGSLRLSCAASGFTFSNYWMTWVRQAPGKGLEWVASITNTGSSTFYPDSVKGRFTISRDNAKNSLYLQMNSLRAEDTAVYYCARDTTIAPFDYWGQGTMVTVSS
VL: DIQMTQSPSSLSASVGDRVTITCKASQNLNEYLNWYQQKPGKAPKRLIYKTNTLQAGVPSRFSGSGSGTDYTLTISSLQPEDFATYYCSQYNSGNTFGQGTKLEIK
notes: humanized
In the case of B9, in assay [2], binding was put at a Kd of 0.617 nM, the off-rate (koff) came to 0.000465 s⁻¹ and the kon is 754000 M⁻¹ s⁻¹. The response in assay [3] was half-maximal at 6.22 ng/mL (EC50).

B10: Hu89C10H8-6 (antibody, V domains shown)
VH: EVQLVESGGGLVKPGGSLRLSCAASGFTFSNYWMTWVRQAPGKGLEWVASITNTGSSTFYPDSVKGRFTISRDNAKNSLYLQMNSLRAEDTAVYYCTRDTTIAPFDYWGQGTMVTVSS
VL: DIQMTQSPSSLSASVGDRVTITCKASQNLNEYLNWYQQKPGKAPKRLIYKTNTLQAGIPSRFSGSGSGTDYTLTISSLQPEDFATYYCSQYNSGNTFGQGTKLEIK
notes: humanized
In assay [2], B10 gave a Kd of 0.122 nM, a koff of 8.56e-05 s⁻¹ and a kon of 701000 M⁻¹ s⁻¹. In assay [3], the EC50 was found to be 6.51 ng/mL.

B11: Hu89C10H8-5 (antibody, V domains shown)
VH: EVQLVESGGGLVKPGGSLRLSCAASGFTFSNYWMTWVRQAPGKGLEWVASITNTGSSTFYPDSVKGRFTISRDNAKNSLYLQMNSLRAEDTAVYYCARDTTIAPFDYWGQGTMVTVSS
VL: DIQMTQSPSSLSASVGDRVTITCKASQNLNEYLNWYQQKPGKAPKRLIYKTNTLQAGIPSRFSGSGSGTDYTLTISSLQPEDFATYYCSQYNSGNTFGQGTKLEIK
notes: humanized
For B11, in assay [2], the affinity, expressed as Kd, was 0.736 nM; the koff amounted to 0.000494 s⁻¹; the kon is 671000 M⁻¹ s⁻¹. For the same molecule, the concentration for a half-maximal effect (EC50) in assay [3] came to 6.37 ng/mL.

B12: Hu89C10H8-2 (antibody, V domains shown)
VH: EVQLVESGGGLVKPGGSLRLSCAASGFTFSNYWMTWVRQAPGKGLEWVASITNTGSSTFYPDSVKGRFTISRDNAKNSLYLQMNSLRAEDTAVYYCTRDTTIAPFDYWGQGTMVTVSS
VL: DIQMTQSPSSLSASVGDRVTITCKASQNLNEYLNWYQQKPGKAPKRLIYKTNTLQAGVPSRFSGSGSGTDYTLTISSLQPEDFATYYCSQYNSGNTFGQGTKLEIK
notes: humanized
Turning to B12, in assay [2], the dissociation constant Kd is 0.133 nM, the koff turned out to be 8.51e-05 s⁻¹ and the kon was 641000 M⁻¹ s⁻¹. This molecule also came in with a concentration giving a half-maximal response (EC50) in assay [3] of 7.28 ng/mL.

B13: Hu89C10H8-3 (antibody, V domains shown)
VH: EVQLVESGGGLVKPGGSLRLSCAASGFTFSNYWMTWIRQAPGKGLEWVASITNTGSSTFYPDSVKGRFTISRDNAKNSLYLQMNSLRAEDTAVYYCTRDTTIAPFDYWGQGTMVTVSS
VL: DIQMTQSPSSLSASVGDRVTITCKASQNLNEYLNWYQQKPGKAPKRLIYKTNTLQAGVPSRFSGSGSGTDYTLTISSLQPEDFATYYCSQYNSGNTFGQGTKLEIK
notes: humanized
In assay [2], B13 gave a dissociation constant (Kd) of 0.0785 nM, a koff of 5.79e-05 s⁻¹ and an association rate constant (kon) of 738000 M⁻¹ s⁻¹. Moreover, in assay [3], the EC50 stood at 6.66 ng/mL.

B14: Hu89C10H8-9 (antibody, V domains shown)
VH: EVQLVESGGGLVKPGGSLRLSCAASGFTFSNYWMTWVRQAPGKGLEWVASITNTGSSTFYPDSVKGRFTISRDNAKNSLYLQMNSLRAEDTAVYYCARDTTIAPFDYWGQGTMVTVSS
VL: DIQMTQSPSSLSASVGDRVTITCKASQNLNEYLNWYQQKPGKAPKRLIYKTNTLQAGIPSRFSGSGSGIDYTLTISSLQPEDFATYYCSQYNSGNTFGQGTKLEIK
notes: humanized
In assay [1], B14 gave a concentration for a half-maximal effect (EC50) of 8.42 ng/mL. Moreover, in assay [2], binding was put at a Kd of 0.713 nM, the koff came to 0.000478 s⁻¹ and the kon was determined as 671000 M⁻¹ s⁻¹.

B15: Hu89C10H8-8 (antibody, V domains shown)
VH: EVQLVESGGGLVKPGGSLRLSCAASGFTFSNYWMTWIRQAPGKGLEWVASITNTGSSTFYPDSVKGRFTISRDNAKSSLYLQMNSLRAEDTAVYYCTRDTTIAPFDYWGQGTMVTVSS
VL: DIQMTQSPSSLSASVGDRVTITCKASQNLNEYLNWYQQKPGKAPKRLIYKTNTLQAGIPSRFSGSGSGTDYTLTISSLQPEDFATYYCSQYNSGNTFGQGTKLEIK
notes: humanized
In turn, B15 registered an EC50 in assay [1] of 7.41 ng/mL. In assay [2], the Kd stood at 0.102 nM, the dissociation rate constant (koff) is 6.66e-05 s⁻¹ and the kon is 655000 M⁻¹ s⁻¹.

B16: Hu89C10H8-10 (antibody, V domains shown)
VH: EVQLVESGGGLVKPGGSLRLSCAASGFTFSNYWMTWVRQAPGKGLEWVASITNTGSSTFYPDSVKGRFTISRDNAKNSLYLQMNSLRAEDTAVYYCTRDTTIAPFDYWGQGTMVTVSS
VL: DIQMTQSPSSLSASVGDRVTITCKASQNLNEYLNWYQQKPGKAPKRLIYKTNTLQAGIPSRFSGSGSGIDYTLTISSLQPEDFATYYCSQYNSGNTFGQGTKLEIK
notes: humanized
In turn, B16 had an EC50 in assay [1] of 7.82 ng/mL. In assay [2], this molecule gave a Kd of 0.151 nM, a koff of 8.99e-05 s⁻¹ and a kon of 595000 M⁻¹ s⁻¹.
